Laboratory results reported in the DeepSol protein solubility set.

Test: soluble on expression in E. coli; label from the status in PepcDB or PDB records

Sequence | soluble on expression in E. coli
MSEFDFDVVVVGAGAVGLACGYALSRRGLVVAVLEEQGRIGEGVSSRNSEVIHGGLYYPTGSLKAKLCVQGRRALYAFCDAHKVPYKKCGKLVVATSEDEIARLDTIWEQALANDVEGMERLTGAQARALEPGLNAHAALLSPESGVFASHDYMLALQGEIEAAGGAVVLSTPFEGAEPLAGGGFRVRAGGAEPTDLTCRLLVTAPGLSSQAVAGRIEGYPAEQIPKAHFGKGIYFRLSGKAPFQRLIYPPPIHGALGTHYRNDMGGQAVFGPDLEYVAAPDYSVDPAKADAFAAYIRKFWPDLPADRLVPDYAGVRPKLHGPGEPQPDFQLRGVEDHGLAGLMALFGIESPGLTSSLAIGETVAERLCGASLEHHHHHH | soluble
MSEKPLTKTDYLMRLRRCQTIDTLERVIEKNKYELSDNELAELTMNKLYDKIPSSVWKFIRLAVFYSAADHR | not soluble
MSELLAGTKLINQDSEELDAGEHLKGKVVGLYFSASWCPPCRQFTPKLTRFFDEIRKKHPEFEVVFVSRDREDGDLREYFLEHMGAWTAIPFGTPRIQELLEQYEVKTIPSMRIVKPNGDVVVQDARTEIQDKGNDPEALWEEWLAFYD | not soluble
MSEMTPREIVSELDQHIIGQADAKRAVAIALRNRWRRMQLQEPLRHEVTPKNILMIGPTGVGKTEIARRLAKLANAPFIKVEATKFTEVGYVGKEVDSIIRDLTDSAGGAIDAVEQNGIVFIDEIDKICKKGEYSGADVSREGVQRDLLPLVEGSTVSTKHGMVKTDHILFIASGAFQVARPSDLIPELQGRLPIRVELTALSAADFERILTEPHASLTEQYKALMATEGVNIAFTTDAVKKIAEAAFRVNEKTENIGARRLHTVMERLMDKISFSASDMNGQTVNIDAAYVADALGEVVENEDLSRFIL | soluble
MSEMTPREIVSELDQHIIGQADAKRAVAIALRNRWRRMQLQEPLRHEVTPKNILMIGPTGVGKTEIARRLAKLANAPFIKVEATKFTEVGYVGKEVDSIIRDLTDSAMKLVRQQEIAKNRARAEDVAEERILDALLPPAKNQWGEVENHDSHSSTRQAFRKKLREGQLDDKEIEIDVSAGVSMGVEIMAPPGMEEMTNQLQSLFQNLGSDKTKKRKMKIKDALKALIDDEAAKLINPEELKQKAIDAVEQNGIVFIDEIDKICKKGEYSGADVSREGVQRDLLPLVEGSTVSTKHGMVKTDHILFIASGAFQVARPSDLIPELQGRLPIRVELTALSAADFERILTEPHASLTEQYKALMATEGVNIAFTTDAVKKIAEAAFRVNEKTENIGARRLHTVMERLMDKISFSASDMNGQTVNIDAAYVADALGEVVENEDLSRFIL | soluble
MSERPDLVDPLPEDEPLPGENIPDTPEGDDPLDPDTQNEVEDPRR | not soluble
MSERRIDVNRSNYSVIDNEFGNMRDRFEQEMRRVEEEMKRLRSEFEGYRPNGGPPAAISNQPYNAYSNTSSHHETSNRTGGFGSPLPPPSFHGPSDLMAHRPTYDPYLDNLKSPLIKDESDGKTLRLRFDVANYKPEEVTVKTIDNRLLVHAKHEEKTPQRTVFREYNQEFLLPRGTNPEQISSTLSTDGVLTVEAPLPQLAIQQ | not soluble
MSESAFKDCFSTDVSADTRLFHFLARDYIVQEGQQPSWLFYLTRGRARLYATLANGRVSLIDFFAAPCFIGEIELIDKDHEPRAVQAIEECWCLALPMKHYRPLLLNDTLFLRKLCVTLSHKNYRNIVSLTQNQSFPLVNRLAAFILLSQEGDLYHEKHTQAAEYLGVSYRHLLYVLAQFIHDGLLIKRKDI | not soluble
MSESITITANSIDNPETDVRRNERFHLVPRKRLEALVTTSGLIGAMIGFYDGVKISSLRYLTENAHRMPKTVGGWYFYHKKKNYVMIVAGVKKAITTSFKYGAAVGGFFGLEYLLDISRGNTIDFFNTTTAAFLTSTFYAKYNKLSSMQTRKMIFKGTALGLTLGLIQDYLIHARKGRVWYLDRYTQQKLV | not soluble
MSEWRGFNRKGNTMKIRPGRHNAPDFPHGAAVTIGNFDGVHLGHKHILQKLRLEADARGLPVVAVVFEPQPKEFFALRTGKTPPCRISPLRTKLELLEGTGCVDAAWVLRFDRNFSEISAQAFIDRLLRQTLNTRYLLVGDDFRFGAGREGCFELLAQQPDMQTERTPSVIVEDIRTSSTAVRQALSDGNLAYAKKLLGHDYVLGGRVVHGRKLGRTLNAPTANIRLPGHRYALGGVFVVEADGAFGTRRGVASFGFNPTVDGGCSQKLEVHLFDFQGDLYGQRLNVRFLHKLRDEEKFDGMEELKRRIEADMEAAKCW | not soluble
MSEYRVNHEPVFMLASSPWRESSLWVEAFSRRYGRVALLARSARKRQSELRGVLVPFVPVSVSWYGSQELKTLHRAEWVGGWRQPQGRALFGGLYVNELVLKLTAREDPVPELYDALAEVMEAVCCKAAYIDDLRRFEWRLLNLLGVAPDLNRDGDGGTIAAGGTYLVRPETAVFPVGKGFAVPPHAAGVVAPGQSLIDLREGSFRTAESLQQALKITRLFIRHLLPEGLKSRQVLEQIRQFDRKETARETVPTSDGTASNAV | not soluble
MSFKDFSFEFNGEPIHFSITSHPDKDLVHFNSTGRIGQVIEVIQPPEILSSQLSDQQRVEYELKSLLGNPELPGVELFIRRFVIHFAGTNQRKSALFVFGIDLDGIPNECIAAALQALEENH | not soluble
MSGAVLPAVLVVPKMESVVVPIAESTVINAKDTTPSTAADNDVSPSPSEPDTDAIKMFVGQIPRQWNETDCRRLFEKYGSVFSCNILRDKSTQASKGCCFVTFYHRKDAIEAQGALHNIKVIEGMHHPVQMKPADTENRNERKLFIGQLSKKHNEENLREIFAKFGHIEDCSVLRDQDGKSRGCAFVTFTNRSCAVVATKEMHHSQTMEGCSAPLVVKFADTQKDKDVKTKSMITGSGAGSPKGGAASLLQNLNPALLQQLGGGQNYQAVASLLSLINGQQGQQQQHQQQQNVLGILGTVLSALGKLTEGGDDASAKSSSEKPRHQALMTSPAPTATSSTSSSASHHHQQHQQQLSQQQQQQQHPQQQGLGNPLLGNPAMAAQNQFDAITMAQIAHQQQMLALQGFAVQQGAPSQQQQGLAGGMAGAKTTSPVAASLANHQQIALTPFAGGAAALDHFQAMQQYALLANLQATGGVGVQATTSAAQMVGNGDVKGPDGANLFIYHLPQDFGDSDLINTFAPFGGILSAKVFIDKVTNLSKCFGFVSYENAQSATNAISAMNGFQIGSKRLKVQLKVDRGNPYNR | not soluble
MSGEDDYNSDDEANKNLSKKELQELKRKQQKSKKKKESKKRAKATKQAEIETREEPKKEEENGDDLDVEIDYIGETIEIEPDNPHAQYFSAIFDAFKISTDSEDGFSYGHHVSKGEKKDDLGKVGQAERIIQEEMEERAKENTEEKLSRRKLRISLQPSIAKLKETTLRADVVEWADVTSRDPYLLVAMKSYRNSVPVPRHWNAKRKYLAGKRGFERPPFELPDFIKRTGIQDMREALLEKEESQSLKSKMRERARPKLGKIDIDYQKLHDAFFKWQTKPAMTKMGELYYEGKEMEAMMRDKKPGEMSDELRIALGMPIGSNAFKFPPPWLIAMQRYGPPPSFPHIKIPGLNAPIPEGCAFGYHAGGWGKPPVDEYGHPLYGDVFGLAAPAFEPEDESQIERRYWGEIGSDESSDEEESEEEEHADDDDADVEGGFQTPAPVEGMITPSGMTTGITGIETPDTIELRKGKESSVLGTDTPAAAYHIIPEKKNERIGGQMMASSHTYDLSKKHAVRDDGVQISLDPESIDMDEQGLAARYEEQLRKQKHRDDDDEDREDLTDMVAEHAAKQNRKRKVQDDKKNKTSSSSSSGSSGKKHKDFKF | not soluble
MSGFYNRGKMKFIHAADIHLGNPISGIDRKINLPEEVKKQIALATFTAFSNVIKLAVDRHVDFVLFPGDLFDSSQQSAYLYNFLNQQFQNLKEAGIEAFISFGNHDFQSDVENDFIWPENVHAFPKSKAKTFFHDSWDGKRVAITGTSFVVRNPRESLVPLYPSRDQSATYQIGMYHGSQGNSSANNYAPFSVGDLQALNYDYWALGHIHVRQVLSKNPAIVYSGDPQGLDLTETGEKGVYFVSDENDQGGLTAEFVPCSSFVFDSFELSINDQSAISNISDLIVQELLSFNHKKMSLNAIRVNLSASLPEKILDQLTDTSFLDLVNSKTIREKQFLIKMDLNVDQKKDNFNQLEERYWQAAKNDVFDEQSFNQALLRTFNSNQQFVIRHFTDPNVQAKLMSKAEQIISERIS | not soluble
MSGGSSRRYPPELRERAVRMVAEIRGQHDSEWAAISEVARLLGVGCAETVRKWVRQAQVDAGARPGTTTEESAELKRLRRDNAELRRANAILKTASAFFAAELDRPAR | soluble
MSGHFNYIVVGRGMMGAAAARHLAETVDGVALIGPGEPADIKSHQGVFASHYDEARITRTIDGDPDWALLANRSIARYADIAARSGVEFYAPVGCLMVGPERGGANPFVDDVLRAAARLGVSTELLGDQSLKSRFPYFSFEPGCEGVFERDNAGYVNPRALVKAQAILAEKAGVTLIDDIVVSTREEDGRASVQTASGAVYTAERVLVAAGGFSITRDLLPQPVGLDVYARTVAFFEIDEGDLGQYAGMPSLIYEPHDTTKHIYLLPPVRYPDGKFYLKIGGDPDDKRVGSDPEIREWFRSGGRESVRDHLSEIVGTLVPSVDHSRVSMAACVVSKTKSGYPAIGFTASPRIAVLTGGNGTAAKSSDEIGRLGAALLRDGKIADDAFSTDFKPEFL | not soluble
MSGNTVKLNVGGTVFETLKSTLTKHDGFFKALIETDVPAEKDDSNCFFIDRSPKHFETVLNYMRSGDVVLPDSKKDMLELKKEAEYYLLSNLAKLCQPPTDNFKTCTPEELMRVVANTDKKVIMINYLTYNGELVFYPWGFNLVHFLIQNRDYVEDVYFRRTESQYPEDGPFPNEKPYWTFLVYNSTRSGRRPFRHTVDLEDCMGHM | not soluble
MSGRRKGCSAATASSSSSSPPSRLPPLPGHARRPRRKRCLVPEVFCTRDLADLCVRRDYEGLRRYLRRFEGSCVSLGWPSQCIYVVGGEHSPHSLTEIDLEHCQNDFFGEFRALHLIGTVSHATCRYQVFVDAYGAVFAYDAQEDCLYELASDLAGFFAKGMIRCDPVHESICARLQPNVPLVHPDHRAELCRRSRASARGRYLRSLLAFRELLACEDTAARCAYVEAHREAQLTLIWPEKHSLVLRTARDLGLSASMLRRFQRSLYTREPVMPLGEIEGAEDKTFFHRVRILCGDTGTVYAALVGQDKLVRLARDLRGFVRVGLALLIDDFRYESIGPVDRSSLYEANPELRLPFKKRRLEHHHHHH | not soluble
MSHENQENYDDYNGDHDNKYDQQYDESSRGDDFGGRGRGFNGPPGGAGSFFGVPPAARGRGGPGMAPPGFAGRGRGFATPGMSSGFAPRGRGMPPGRGGYMPPYRGGYGVAPNGGPGAYGGPYNGGPGAYGAQAPGPNPQDQEQRLKRLSGCEEGQELWVETETAEGKKYFYHPVNRNTIWERPQNAKIVTQPELAQLIHRATEEEKNREERMPHGQIPQNPDDAWNEFNAPDGRKYYFNSITQENTWEKPKALIDQENGGGASPEPVQSAAIAEAQAKAQAALAAFMAQQKTSSNGGGGMPLSKAQASGAAAAAAVNAEAAKKKDSTRPISSTPVSGTPWCVVWTGDDKVFFYNPSTKCSVWERPPDTYGREDVDKLVQNPPSPKAEEENNQSKKESESESESDEDGPPKAKKSRAEKKKEALIAAQKKEKERPRQMLQKPVDPAIEAEMQAAKEREKVPLEERLKQFKEMLEEKNVSTSSTFEKELSKIVFDKRYLSLGATERRACFDAFCREKIESEKAERRKRVKEAKEEFQKLLAECELNGRSSYSSFTSKFGKDPRYKAVERNRDREDAFNDFVGELHKKEKDEKRAKKEKLKAAFVKLLEEQTGLTRKSKWSTTKKTLEDEERYIALDSSSTRESLFREFVANLGDETASDIEEEQEREKRLAAQTAIANRQKEVEAELGNQLRERTKESEKQKMGEHEDTYRNLLIDLIKSTENSWHEARRILRKDERYANCDMLDKTRKESLFDDHIKSLERKRREAFFQVLDNHEKITPMMRWRDAKKIIQDEEETFVKIASNSERKVERDFRDWQERRHDHLTDEFKEMLSETKIITHKSKKLMEEGEQHMDILSVLENDKRWVRMTAMSASERDRMLEDHIENLGRKGTPPPPTQQERDRRKQ | soluble
